B1: LINE1-full (parent)
chain: UACGUAGGUGGUUUUCCCCUGAUAGUGCUAAGGGGGCCUGGAAGUUUGGACUGGGCAGAGCUCAACACAGCGUGGCAAAGUGGCUGUGGCUAGACUGCCUCUCUGGAUUCCUCGUCACUCAGCAGGGCAUCUCUGAGAGAAAUGCC

Variants of: B1
Assay: self-cleavage, relative activity (ratio to wild type); higher = more cleavage; in vitro, sequencing; the parent is a self-cleaving ribozyme

| Variant | self-cleavage |
| --- | --- |
| C99U A142G | 0.58 |
| U15C A142C | 1.8 |
| C17G U143C | 1.09 |
| U52G G70A | 0.42 |
| A92C U109C | 0 |
| U23C U115C | 1.16 |
| C71U G144A | 1.27 |
| U5A U62C | 0.05 |
| A124G A136U | 1.3 |
| U9A G35C | 1.87 |
| G41A U143C | 0.95 |
| U109C C123U | 1.22 |
| U73C G105A | 2.03 |
| A59G A77U | 0.05 |
| A136G A141G | 1.03 |
| G7A G54A | 0.4 |
| C113A A136G | 0.91 |
| A6C C113U | 1.35 |
| U119C C145U | 1.25 |
| G8A G97A | 0.41 |
| U62A G127U | 0.02 |
| A64U C133U | 0.49 |
| A22C U39C | 2.06 |
| G34C U143C | 2 |

| Variant | self-cleavage |
| --- | --- |
| U62A U96A | 0.04 |
| C63U A94G | 0.06 |
| A117U G135U | 1.68 |
| A59G U102A | 0 |
| A24U G35U | 0.67 |
| U112A A129U | 1.8 |
| A42U G72U | 0.62 |
| A24G U102C | 1.73 |
| A65U A117G | 0.24 |
| G127A C146U | 1.43 |
| U96A A136G | 0.09 |
| A94G U112C | 0.13 |
| U13A G137A | 1.13 |
| A24G G122C | 1.12 |
| U46A U73C | 1.5 |
| U39A U73A | 1.76 |
| A67C G72U | 0.06 |
| U47A C99A | 0.48 |
| A59U U85C | 0.16 |
| G32A G82A | 2.01 |
| U112A U134G | 1.73 |
| A50G C84U | 0.11 |
| A30C A57G | 0.52 |
| U20C A67U | 0.15 |

| Variant | self-cleavage |
| --- | --- |
| A30U A43C | 1.57 |
| U52A G82A | 1.63 |
| U13C A138U | 1.31 |
| U87A U108C | 0.11 |
| U12C C71U | 0.9 |
| A141U | 1.04 |
| U62A C131U | 0.02 |
| G53U A64U | 0.45 |
| U20C C118G | 1.45 |
| U23A U96A | 0.08 |
| U20C G33A | 0.99 |
| U62A U102G | 0.08 |
| A129U G139A | 1.53 |
| G7U A140G | 1.33 |
| U15A U112A | 1.53 |
| U23A U132C | 0.33 |
| C84U A136U | 0.13 |
| A79G A107U | 1.41 |
| A79G U119A | 1.06 |
| G4A U15C | 1.11 |
| U20C A121U | 1.44 |
| U5C A78G | 1.18 |
| U14C A94C | 0.09 |
| U81C G83A | 1.46 |

| Variant | self-cleavage |
| --- | --- |
| A2U A67G | 0.61 |
| G7A U23A | 0.85 |
| U29C A124U | 1.04 |
| A43G A124G | 1.05 |
| U15C U85C | 0.34 |
| A57U A107U | 0.02 |
| U9C U134G | 0.63 |
| U85C A92G | 0.28 |
| U46C A107G | 1.06 |
| U46G A117G | 2.26 |
| U15C A50G | 1.11 |
| A69U U134C | 0.09 |
| A22C A42G | 1.86 |
| U46C U73G | 1.65 |
| G34U A69G | 0.47 |
| U46C A92U | 0.76 |
| C61A A124G | 0.04 |
| U20A C66U | 0.02 |
| U26C G93C | 0.17 |
| C3U U87C | 0.12 |
| G144C C145U | 0.99 |
| C51A U115C | 1.5 |
| U52C A65U | 0.19 |
| A67C A136G | 0.12 |

| Variant | self-cleavage |
| --- | --- |
| U73A U132G | 2.06 |
| U13C U115A | 1.3 |
| U46A A141G | 1.36 |
| A6G U9C | 1.16 |
| U9C G89U | 0.08 |
| A43C A65G | 0 |
| U45C U96A | 0.07 |
| A64G A107C | 0.12 |
| G70C U112C | 0.14 |
| U104C A140G | 1.67 |
| A42U U73G | 0.95 |
| G55A C63U | 0.13 |
| A92G A121U | 0.09 |
| A57G A117G | 1.41 |
| G40A U143C | 1.26 |
| A141G U143A | 1.29 |
| U100C U108C | 2.05 |
| G7C U85C | 1.26 |
| G58A A94G | 0 |
| U9C C61U | 0.08 |
| C37U U47A | 1.41 |
| A78G A141U | 1.66 |
| U108A A142G | 1.55 |
| G137A | 1.19 |

| Variant | self-cleavage |
| --- | --- |
| A94U U134G | 0.2 |
| G49A A107G | 0.73 |
| G4A U12C | 0.77 |
| G4U U130A | 1.16 |
| U20A G139A | 0.53 |
| C116A A142C | 1.54 |
| U5G A141G | 0.49 |
| G53A G126U | 1.31 |
| A67G U130C | 0.65 |
| A92U G127A | 0.39 |
| A22G G88A | 0.14 |
| G36C U143C | 1.43 |
| U5C U52A | 1.02 |
| A64U A138C | 0.64 |
| G126U A129U | 0.81 |
| U5A U15C | 0.94 |
| G34U U115C | 1.84 |
| A117G C118U | 1.44 |
| U112C A129U | 1.67 |
| U12C G41A | 1.26 |
| U9C A107U | 1.59 |
| U52C A77G | 2.8 |
| G36C A77G | 1.6 |
| G53A U109C | 0.27 |

| Variant | self-cleavage |
| --- | --- |
| A22G G106U | 0.73 |
| U23C U62A | 0.06 |
| C17A U132A | 1.17 |
| G27A A138G | 1.02 |
| U109C U132C | 1.03 |
| U91C C98U | 0.19 |
| A50G A78U | 1.2 |
| A69G U134C | 0.44 |
| U14A U45C | 1.09 |
| C113U C123U | 1.35 |
| G48A G93U | 0.03 |
| G83A U119A | 0.85 |
| C38U U100C | 1.9 |
| C66U A141G | 0.03 |
| U1C C146U | 1.08 |
| U39A U85A | 0.11 |
| U20A U100A | 0.78 |
| G54U C84U | 0.07 |
| A57U U143C | 0.14 |
| G72A A142G | 1.27 |
| U62C C63A | 0.01 |
| A64G C131U | 0.33 |
| G44A A94U | 0 |

Reference: the RNAGym collection of RNA variant scans (doi:10.7554/elife.90254)
